Results reported in patent US20230143003A1 (JULIUS MAXIMILIANS UNIVERSIT T W RZBURG, published 2023).

How the values were obtained:
[1] = target: T1, hROR2-Fc (human ROR2 Fc fusion protein) (human, UniProt Q01974 34-403, limits assumed); experiment: SPR; reference the existing anti-ROR2 antibody (XBR2-401)
T1 construct: Given both as hROR2-Fc and as Fc-hROR2, so the order of the two parts is not certain; also called Fc-hROR2; not shown: human Fc part (captured by a mouse anti-human IgG CH2 / Fcγ mAb)

[2] = target: T2, human ROR1 on cells (MDA-MB-231, ROR2-, ROR1+; also 786-O, ROR2+, ROR1+) (human, UniProt Q01973 30-937); experiment: flow cytometry on MDA-MB-231 cells (ROR2-, ROR1+); Fab followed by PE-conjugated goat anti-human F(ab')2 pAbs
T2 construct: whole, on cells
Experimental: (§1) Cells were analyzed using a FACSCanto instrument (BD Biosciences) and FlowJo analytical software (Tree Star).

[3] = target: T1, hROR2-Fc (human ROR2 Fc fusion protein); experiment: SPR, Biacore X100; hROR2-Fc captured, Fab injected; reference Fab 401
Experimental: (§2) A CM5 chip immobilized with a mouse anti-human Fcγ mAb was used to capture Fc-hROR2.
(§3) Kinetic and thermodynamic parameters for the ROR2 binding of purified anti-ROR2 Fab variants were measured by use of SPR as previously described [29], performed on a Biacore X100 instrument using Biacore reagents and software (GE Healthcare). Briefly, a CM5 sensor chip was immobilized with a mouse anti-human IgG CH2 mAb in order to capture the hROR2-Fc antigen.

[4] = target: T1, hROR2-Fc (human ROR2 Fc fusion protein); experiment: SPR (Biacore X100), Fc-hROR2 captured on CM5 chip via mouse anti-human Fcγ mAb, Fab as analyte, 1:1 binding model
Experimental: as §2, §3

[5] = target: T1, hROR2-Fc (human ROR2 Fc fusion protein); experiment: SPR, Biacore X100; hROR2-Fc captured by anti-human Fc mAb on a CM5 chip, Fab injected
Experimental: as §2, §3

[6] = target: human CD3 on Jurkat-T Lucia cells (CD3+) (human, UniProt P07766 23-207; P04234 22-171; P09693 23-182); experiment: flow cytometry on Jurkat-T Lucia cells (CD3+); scFv-Fc followed by Alexa Fluor 647-conjugated donkey anti-human F(ab')2 pAbs
Experimental: as §1

[7] = target: T2, human ROR1 on cells (MDA-MB-231, ROR2-, …); experiment: Retrogenix cell microarray post-screen, ROR1 expressed on HEK 293 cells

Binder | fold increase in binding affinity [1] [fold] | binding result [2] | fold improvement of affinity from 401 [3] [fold] | Kd [4] [nM] | koff [4] [s⁻¹] | kon [4] [M⁻¹ s⁻¹] | Kd [5] [nM] | binding result [6] | binding result [7]
XBR2-401-X3.12 Fab (affinity matured chimeric rabbit/human Fab) (Fab, V domains shown, Chimeric rabbit/human Fab) VH: QSVKESEGGLFKPTDTLTLTCTVSGFSLSSYGVTWVRQAPGSGLEWIGYINTAGNTYYASWAKSRSTITRNTNENTVTLKMTSLTAADTATYFCARDDRWSLNIWGPGTLVTVSS VL: DPMLTQTPSSTSTAVGDTVTIKCQASQSISSDLSWYQQKPGQRPKLLIYQASTLASGVPSRFKGSGYGTEYTLTISGVQREDAAIYYCLGGYADASYRTAFGGGTKLEIK | 10 | no binding | ≥ 5 | 0.72 | 3.3e-05 | 45000 | 0.7 | – | –
hX3.12.6 scFv-Fc (IgG1-like format, two identical scFv fused to human IgG1 Fc) (Fc fusion, The text says only: (Gly4Ser)3 linker between VL and VH, fused to the human IgG1 Fc fragment; also called mAb hX3.12.6 in scFv-Fc format; Humanized scFv-Fc xh3.12.6; not shown: human IgG1 Fc fragment) DPMLTQSPSSLSASVGDRVTITCQASQSISSDLSWYQQKPGKAPKLLIYQASTLASGVPSRFKGSGYGTEYTLTISSLQPEDFATYYCLGGYADASYRTAFGGGTKLEIKGGGGSGGGGSGGGGSEVQLVESGGGLVQPGGSLRLSCAASGFTFSSYGVTWVRQAPGKGLEWVSYINTAGNTYYASWAKSRFTISRDNAKNSLYLQMNSLRAEDTAVYYCARDDRWSLNIWGQGTLVTVSS | – | – | – | – | – | – | – | no binding | no binding (tested: 20 µg/mL)
